Laboratory results as given in patent US20240245613A1, “PEPTIDE LIQUID DROPLETS AND METHODS OF USING THE SAME” (RAMOT AT TEL AVIV UNIVERSITY LTD., priority 2021, published 2024).
Entries after “also recorded” stand apart in the source; their conditions may differ.

How the values were obtained:
Format in all cases: physicochemical
[1] = Phase diagrams / liquid-liquid phase separation (turbidity at 500 nm, optical and confocal microscopy); settings: 0.2 M NaCl; for liquid-liquid phase separation (LLPS) / droplet formation, in words: as a function of peptide concentration and pH; for peptide concentration at which phase separation is observed: pH increased until turbidity appeared
Method: 150 μl of 5, 10, 20 and 30 mM peptide solutions were prepared in 20 mM of the suitable buffer (citrate buffer for a pH range of 3-6, tris buffer for pH range of 7-9 and ammonium bicarbonate to a pH range of 9-12) with 0.2 M NaCl. The pH was increased gradually until a turbidity appeared and measured as described below. The turbidity of 35 μl was measured in triplicates at λ=500 nm. This process repeated at higher pH, the pH increased until the turbidity faded, and a sediment appeared. All experiments were performed in triplicates and the presented value is the average.
150 μl of 20 μM peptide solutions were prepared in 20 mM Tris buffer. The pH was adjusted to the desired value of 6, 7, 8, 9, 10 and 11. The turbidity of 35 μl was measured in triplicates at λ=500 nm.
All samples were imaged in a 96 Well Black Glass bottom plate, glass 1.5H (made by Hangzhou Xinyou, and purchased from Danyel Biotech) 10 minutes after preparation. The images were taken by Zeiss Zen 900 confocal microscope with ×20/0.8 NA Plan-Apochromat air objective. The light microscopy images were taken at PMT mode. PMT imaging were taken with 561 nm laser and fluorescence imaging were taken with 488, 561 and 405 nm lasers for fluorescein, rhodamine B and GFP, respectively.
A phase diagram was created by increasing the pH at various peptide concentrations until a visible turbidity occurred. The turbidity was measured as the absorbance at λ=500 nm. To confirm that the turbidity occurred as a result of coacervation rather than precipitation, we performed an optical microscopy analysis of 20 mM peptide solution at pH 8.

[2] = Fluorescence recovery after photobleaching (FRAP) of peptide droplets; settings: for apparent diffusion coefficient, comparison in words: among the four LLPS-promoting peptides; for Apparent diffusion coefficient D: droplets prepared with 0.5% FITC labeled peptide, calculated from recovery time; for mobility and dynamics of the droplets: unit not given
Method: FRAP experiments were performed by a Zeiss Zen 900 confocal microscope with ×20/0.8 NA Plan-Apochromat air objective. A circular area with radius of 2.5 μm was bleached with a 488 nm laser 100% intensity at 10 iterations; subsequent recovery of the bleached area was recorded with a 488 nm laser. Photobleaching correction and recovery time were calculated using OriginLab. The final FRAP recovery curve is the average of recovery curves collected from five separate droplets.
A fluorescence […] after photo bleaching (FRAP) used to evaluate the diffusion of the droplets. The droplets were prepared with 0.5% of FITC labeled peptide and were observed by confocal microscope. The apparent diffusion coefficients were calculated as followed: […]

[3] = Encapsulation efficiency of fluorescent payloads in peptide droplets; settings: 20 mM peptide, 20 mM Tris + 0.2 M NaCl, pH 8
Method: 1 mM Stock solutions of the fluorescein and Rhodamine B dye molecules were prepared in 20 mM Tris buffer. A 20 mM peptide coacervated solutions were prepared in 20 mM Tris+0.2 M NaCl at pH 8. A 148.5 μl of peptide solution was mixed with 1.5 μl of dye solution in a 1.5 ml Eppendorf tube and was pipetted. The 15 μl of GFP solution was added to 135 μl of peptide solution and was mixed in a 1.5 ml Eppendorf tube and was pipetted. After 10 minutes the samples were centrifuged at 15,000 rcf for 10 minutes. A volume of 120 μl from the supernatant was collected and vortexed and then the absorbance of 35 μl triplicates was measured in a 384 well black plate by Biotek H1 synergy plate reader (purchased from Lumitron, Israel). For GFP, a 7.5 μl of 20 mM Tris buffer to a 7.5 μl GFP aliquot from the purchased stock solution. The 15 μl of GFP solution was added to 135 μl of peptide solution and was mixed in a 1.5 ml Eppendorf tube and was pipetted. The concentration of GFP at the supernatant was measured via fluorescence. All experiments were performed in triplicate. The concentration of the supernatant solutions determinate by calibration curves. Imaging was made to 30 μl of uncentrifuged samples.
LLPS are widely known for the ability to encapsulate small molecules or proteins. This characteristic is important for drug delivery and to exploits coacervate as microreactors. In order to investigate the encapsulation capacity of the designed peptides two fluorescent dyes were used (fluorescein and rhodamine B) and the protein GFP. The peptides WGR-1, WGR-3, WGR-4 and WGR-5 were chosen for this experiment for their diverse chemical characteristics. The encapsulation efficiency was measured via bulk measurements and images of the droplets with the dyes were taken in a fluorescence confocal microscope.

Row | Sequence | liquid-liquid phase separation (LLPS) / droplet formation, in words [1] | apparent diffusion coefficient, comparison in words ([2]; FRAP) | apparent diffusion coefficient (D), fold larger than that of WGR-5 ([2]; FRAP, compared with WGR-5) | Apparent diffusion coefficient D ([2]; FRAP) [m^2 sec^−1] | encapsulation efficiency of GFP, in words [3] | encapsulation efficiency of fluorescein, in words [3] | mobility and dynamics of the droplets [2] | peptide concentration at which phase separation is observed [1] [mM]
1 | WGKGKGKGWPGVGY | showed no visual turbidity; also recorded: LLPS was not observed | – | – | – | – | – | – | –
2 | WGRGRGRGWPGVG (WGRGRGRGWPGVGF) [WGR-2] | arrested phase separation; also recorded: LLPS was not observed | – | – | – | – | – | – | –
3 | WGRGRGRGWPGVGF [WGR-3] | created LLPS at higher pH value comparing to WGR-1 | largest apparent diffusion coefficient | more than 5 fold | 5.52E−14 | lowest encapsulation efficiency | lowest encapsulation efficiency | – | –
4 | WGRGRGRGWPGVGY [WGR-1] | – | – | – | 4.518E−14 | – | no significant difference | 4.52E-14 | –
5 | WGRGRGRGWY [WGR-4] | exhibit phase separation at more moderate conditions | lower diffusion coefficient than WGR-1 | – | 2.36E−14 | highest encapsulation efficiency | no significant difference | 2.36E-14 | 5
6 | WGRGRGWPGVGY [WGR-5] | perform a phase separation at similar conditions to WGR-4 | lowest diffusion | – | 9.27E−15 | compromised encapsulation efficiency | – | – | 5
